No end group written: not given here.
T1: His-tagged P3028 (human, not fully specified)
T1 construct: the tag is put first after 'PGE73=His-tag-P3028'; also called PGE73; not shown: His-tag
T1 peptide: {His‑tag}-VFDEFKPLVEEPQNLIK

T2: His-tagged P3028 (human, also: His-tag, terminus and sequence not given here)
T2 construct: used in solution in the PEPSCAN (rampo) ELISA; also called PGE73; His-tag-P3028; not shown: His tag
T2 peptide: VFDEFKPLVEEPQNLIK


Experiments:
His-tagged P3028 [1] = target: T1, His-tagged P3028; assay: chip ELISA
His-tagged P3028 [2] = target: T2, His-tagged P3028; assay: PEPSCAN ELISA (rampo)
Protocol: After washing, the peroxidase substrate 2,2′-azine-di-3-ethylbenzthiazoline sulfonate (ABTS) and 2 μL of 3% H2O2 were added. The binding capacity of the mAb was measured as a color development at 405 nm (optical density, OD405). The color development was quantified with a charge-coupled device (CCD)—camera and an image processing system.
The OD405-values obtained by a CCD-camera was considered as raw data values (“rampo values,” “rampo units,” or “rampo scores”). […] First the CCD-camera made a picture of the card before peroxidase coloring and then again a picture after the peroxidase coloring. […] These values were copied into an excel file and labeled as a raw data file. One follow-up manipulation was allowed. Sometimes a well can contain an air-bubble resulting in a false-positive value. If manual inspection of the cards detect an air-bubble the value are set to 0 for that well.

Binder	rampo value (His-tagged P3028 [2])	rampo score relative to the P28R control sample (His-tagged P3028 [2])	further results
KKLDTFFVKLSLFVER [P28R T14V]	–	–	ELISA signal (His-tagged P3028 [1]): 380
KKLDTFFMKLSLFTER [P28R V8M]	–	–	ELISA signal (His-tagged P3028 [1]): 221
KKLDTFFLKLSLFTER [P28R V8L]	–	–	ELISA signal (His-tagged P3028 [1]): 411
KKLDTFFDKLSLFTER [P28R V8D]	–	–	ELISA signal (His-tagged P3028 [1]): 122
KKLDTFFWKLSLFTER [P28R V8W]	–	–	ELISA signal (His-tagged P3028 [1]): 228
KKLDTFFNKLSLFTER [P28R V8N]	–	–	ELISA signal (His-tagged P3028 [1]): 203
KKLDTFFYKLSLFTER [P28R V8Y]	–	–	ELISA signal (His-tagged P3028 [1]): 211
KKLDTFFIKLSLFTER [P28R V8I]	–	–	ELISA signal (His-tagged P3028 [1]): 401
KKLDTFFAKLSLFTER [P28R V8A]	–	–	ELISA signal (His-tagged P3028 [1]): 299
KKLDTFFKKLSLFTER (also called P27; SCF27) [P28R V8K]	–	–	ELISA signal (His-tagged P3028 [1]): 253
KKLDTFFRKLSLFTER [P28R V8R]	–	–	ELISA signal (His-tagged P3028 [1]): 365
KKLDTFFEKLSLFTER [P28R V8E]	–	–	ELISA signal (His-tagged P3028 [1]): 139
KKLDTFFFKLSLFTER [P28R V8F]	–	–	ELISA signal (His-tagged P3028 [1]): 358
KKLDTFFVKLSLFWER [P28R T14W]	–	–	ELISA signal (His-tagged P3028 [1]): 374
KKLDTFFTKLSLFTER [P28R V8T]	–	–	ELISA signal (His-tagged P3028 [1]): 298
KKLDTFFVKLSLFYER [P28R T14Y]	–	–	ELISA signal (His-tagged P3028 [1]): 270
KKLDTFFQKLSLFTER [P28R V8Q]	–	–	ELISA signal (His-tagged P3028 [1]): 271
KKLDTFFHKLSLFTER [P28R V8H]	–	–	ELISA signal (His-tagged P3028 [1]): 213
KKLDTFFSKLSLFTER [P28R V8S]	–	–	ELISA signal (His-tagged P3028 [1]): 216
RKLDTFFVKLSLFTER [SEQ ID NO 3]	> 500 rampo units	–	–
KKLDTFLVKLSLFTER [SEQ ID NO 13]	> 500 rampo units	–	–

Binder	rampo value (His-tagged P3028 [2])	rampo score relative to the P28R control sample (His-tagged P3028 [2])	further results
KKGDTFFVKLSLFTER [SEQ ID NO 4]	> 500 rampo units	–	–
KKLDTAFVKLSLFTER [SEQ ID NO 7]	> 500 rampo units	–	–
KKEDTFFVKLSLFTER [SEQ ID NO 5]	> 500 rampo units	–	–
KKLDTFFVKLSMFTER [SEQ ID NO 21]	> 500 rampo units	–	–
KKLDTFFVKLSLGTER [SEQ ID NO 28]	> 500 rampo units	–	–
KKLDTFTVKLSLFTER [SEQ ID NO 12]	> 500 rampo units	–	–
KKLDTFFVKLTLFTER [SEQ ID NO 17]	> 500 rampo units	–	–
KKLDTFFVKLSLATER [SEQ ID NO 29]	> 500 rampo units	–	–
KKLDQFFVKLSLFTER [SEQ ID NO 6]	> 500 rampo units	–	–
KKLDTFFVKLSLFPER [SEQ ID NO 32]	> 500 rampo units	–	–
KKLDTFFVKLSLRTER [SEQ ID NO 30]	> 500 rampo units	–	–
KKLDTFFVKLSLFNER [SEQ ID NO 31]	> 500 rampo units	–	–
KKLDTFFVKLHLFTER [SEQ ID NO 18]	> 500 rampo units	–	–
KKLDTFVVKLSLFTER [SEQ ID NO 11]	> 500 rampo units	–	–
KKLDTFFVKLSVFTER [SEQ ID NO 20]	> 500 rampo units	–	–
KKLDTVFVKLSLFTER [SEQ ID NO 8]	> 500 rampo units	–	–
KKLDTFFVKLSQFTER [SEQ ID NO 19]	> 500 rampo units	–	–
KKLDTFFVKVSLFTER [SEQ ID NO 14]	> 500 rampo units	–	–
KKLDTFFVKLSLSTER [SEQ ID NO 27]	> 500 rampo units	–	–
KKLDTFFVKLSLPTER [SEQ ID NO 26]	> 500 rampo units	–	–

Now from value to binder, other results behind:

rampo value (His-tagged P3028 [2])	rampo score relative to the P28R control sample (His-tagged P3028 [2])	Binder	further results
–	≥ 98 % of P28R control	VKLDTFFVKLSLFTER [SEQ ID NO 281]	–
–	≥ 98 % of P28R control	DKLDTFFVKLSLFTER [SEQ ID NO 269]	–
–	≥ 98 % of P28R control	IKLDTFFVKLSLFTER [SEQ ID NO 273]	–
–	≥ 98 % of P28R control	GKLDTFFVKLSLFTER [SEQ ID NO 271]	–
–	≥ 98 % of P28R control	KKIDTFFVKLSLFTER [SEQ ID NO 289]	–
–	≥ 98 % of P28R control	EKLDTFFVKLSLFTER [SEQ ID NO 270]	–
–	≥ 98 % of P28R control	KKQDTFFVKLSLFTER [SEQ ID NO 293]	–
–	≥ 98 % of P28R control	PKLDTFFVKLSLFTER [SEQ ID NO 277]	–
–	≥ 98 % of P28R control	KKHDTFFVKLSLFTER [SEQ ID NO 288]	–
–	≥ 98 % of P28R control	QKLDTFFVKLSLFTER [SEQ ID NO 278]	–
–	≥ 98 % of P28R control	KKEDTFFVKLSLFTER [SEQ ID NO 285]	–
–	≥ 98 % of P28R control	KKKDTFFVKLSLFTER [SEQ ID NO 290]	–
–	≥ 98 % of P28R control	KKCDTFFVKLSLFTER [SEQ ID NO 283]	–
–	≥ 98 % of P28R control	KKMDTFFVKLSLFTER [SEQ ID NO 291]	–
–	≥ 98 % of P28R control	HKLDTFFVKLSLFTER [SEQ ID NO 272]	–
–	≥ 98 % of P28R control	LKLDTFFVKLSLFTER [SEQ ID NO 274]	–
–	≥ 98 % of P28R control	RKLDTFFVKLSLFTER [SEQ ID NO 279]	–
–	≥ 98 % of P28R control	KKADTFFVKLSLFTER [SEQ ID NO 282]	–
–	≥ 98 % of P28R control	KKDDTFFVKLSLFTER [SEQ ID NO 284]	–
–	≥ 98 % of P28R control	TKLDTFFVKLSLFTER [SEQ ID NO 280]	–
–	≥ 98 % of P28R control	MKLDTFFVKLSLFTER [SEQ ID NO 275]	–
–	≥ 98 % of P28R control	KKGDTFFVKLSLFTER [SEQ ID NO 287]	–
–	≥ 98 % of P28R control	NKLDTFFVKLSLFTER [SEQ ID NO 276]	–
–	≥ 98 % of P28R control	AKLDTFFVKLSLFTER [SEQ ID NO 268]	–
–	≥ 98 % of P28R control	KKFDTFFVKLSLFTER [SEQ ID NO 286]	–
–	≥ 98 % of P28R control	KKNDTFFVKLSLFTER [SEQ ID NO 292]	–
> 500 rampo units	–	KKLDTFFVKLSLFRER [SEQ ID NO 33]	–
